Laboratory results published in the supplement of paper PMC12042874.
± gives the uncertainty stated by the source.

Experiment: amyloid nucleation score (Sup35N fusion, yeast selection) (log enrichment); library NNK3; higher = more nucleation; inactive = no reads after selection
How it was run: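 The nucleation score, computed with DiMSum, is the log enrichment of output over input reads, centred on the mode score of non-aggregating sequences. Sequences with under 100 input reads were dropped. Reads were generated by Illumina sequencing of plasmid inserts from psi-negative yeast with Sup35N fused to peptides of 20 random codons, induced with 100 μM copper sulfate for 24 hours and grown 7 days at 30°C on medium lacking adenine and uracil.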

Row | Substance | amyloid nucleation score
1 | AAGRGWTGEALMHRNAQCDS | 0.244 ± 0.87
2 | ACDTVEDGTSGGHCWVCGDG | inactive
3 | ACLLLSDLNY | inactive
4 | ACMLNEWRNVVRPYLCLSKN | inactive
5 | ACNDVIHVASSRDLMGAHPR | -0.396 ± 0.87
6 | ACTCDRAGDRLVVWLLDGYL | inactive
7 | ACTLDTLFSFVPSHNWSGQK | inactive
8 | ACTRWS | inactive
9 | ADKWSHGAHDRVVLVLRVCR | inactive
10 | ADLGATAAINQKAWVGDQ | inactive
11 | ADNKLANWSGAVREWEVRRV | -0.523 ± 0.95
12 | ADNRHIFFIGFQRVLSFSWA | 1.25 ± 0.1
13 | ADSMTTGLVHGWCYFCMWFN | 2.16 ± 0.065
14 | AERAWYGGCLNRILLSVCCH | inactive
15 | AFAMRMTCSGLVNICHFAWL | 0.287 ± 0.38
16 | AFDTILAEYLCYFLL | 1.7 ± 0.1
17 | AFFPHELRDMFRSNLYCCYA | inactive
18 | AFSFMLACWQRRIAQALAYL | inactive
19 | AFSFPSERVWVWNFHMRDKE | 3.11 ± 0.058
20 | AFTGTDSKF | inactive
21 | AFYFRT | inactive
22 | AGGCDRYVHPRFLDKRSSWS | inactive
23 | AGHSEA | inactive

Row | Substance | amyloid nucleation score
24 | AGKSLLRVQYP | inactive
25 | AGNLLARPSLQKGCLLDELP | -0.73 ± 1.7
26 | AGQNQVRDGKVIVKACSCMS | inactive
27 | AGTSKMNIYSMHAV | inactive
28 | AGWCYFASSVLVRTSWSQCA | inactive
29 | AGYGSVSRLSMEKMEFNQ | inactive
30 | AHCLTRGSVTPCPLGSRAVR | inactive
31 | AHGHISCLLTYTAYWYCCV | 0.502 ± 0.19
32 | AHRFITMSLERVSTYRGLYV | inactive
33 | AICSPTLLDYYFLFKVLPGS | inactive
34 | AILEVLT | 0.671 ± 0.17
35 | AIRFVNPMFSFWVSNWNYAG | inactive
36 | AISPNASTWTACTFYCMDSG | -0.027 ± 0.26
37 | AIVESKPYLRSVL | inactive
38 | AIVFGGNAQKSHTHDTGAMG | inactive
39 | AIVFNFDYLLYLQNRSNLMH | inactive
40 | AIYAHYYRTWVFWYYMVPGC | inactive
41 | AKGAMLCTMT | inactive
42 | AKIVECM | inactive
43 | AKSMVWNGGVWYLFQEYARG | inactive
44 | AKTSADYTYVASRTDFGCVN | inactive
45 | ALALMFVEGCVIYMGIGC | 1.93 ± 0.076
46 | ALESTMVWLSQRQGRFVHSL | -0.284 ± 0.7

Row | Substance | amyloid nucleation score
47 | ALGIYRTIYCVIVFG | inactive
48 | ALIHFGIEVKRYICWMQNLV | inactive
49 | ALKDGIFFFHA | inactive
50 | ALKVYADMIDYLWLRTFMSW | inactive
51 | ALLYRERKYSMLVKFVVYRS | inactive
52 | ALRARERWLRLPALAWKVMY | inactive
53 | ALSNN | inactive
54 | ALSVFRGLCVLENFSKISGC | inactive
55 | ALTHHVVYLMAGKNVTTS | inactive
56 | ALTLMCFSVLGFYYVVMYCF | inactive
57 | ALVRGIVSTPDSRM | inactive
58 | ALVWFENVSVQELQWIKLTS | inactive
59 | ALWFIHYGAG | 0.98 ± 0.24
60 | AMEIRNVQELSIGPGNWMET | inactive
61 | AMLLCTYFRKAVYLNAK | inactive
62 | ANDVISYTFFLSEERG | inactive
63 | ANNLAFSRGG | -0.977 ± 1.5
64 | ANNPLLG | inactive
65 | ANTFKVWPKDICAGTVYM | inactive
66 | ANVWPISPLSGGVRLWMFGR | inactive
67 | ANWIVGC | inactive
68 | ANWVVVLLNRQASLGRFAYV | inactive
69 | APGCGTNLGMIFALGWALWR | inactive

Row | Substance | amyloid nucleation score
70 | APIVKL | inactive
71 | APLMTYMVMTFMWDSKELPD | inactive
72 | APVKLAGLHTSVRARGIGYW | -0.192 ± 1.3
73 | ARHVENSAKGFVGYLRRMHV | inactive
74 | ARLETHCFMRRRGQF | inactive
75 | ARLVYFFLYGLSCRMHCLCW | inactive
76 | ARMLSVYSSESQCVTPGWCC | inactive
77 | ARSARGLGQRYLLYMYCLWL | inactive
78 | ARSDGA | inactive
79 | ARVLDAWSYRVARKNLWESL | inactive
80 | ASATAYSVNLRLKVTVNM | 1.71 ± 0.12
81 | ASFKFGG | inactive
82 | ASGDLAGSKLVSYRVATLIN | inactive
83 | ASLISILLALDMSMGLSLEP | inactive
84 | ASLVKSHDHMRASHLGGLHK | inactive
85 | ASVACLAFP | inactive
86 | ASWKLITCQNSAFR | inactive
87 | ATAPYDTVCRLYCLSWPPRS | inactive
88 | ATNLWR | inactive
89 | ATRASPMSGTYSCTFKIIFL | 2.94 ± 0.082
90 | ATRTNYCACPLLMARWMSVL | inactive
91 | ATSEYWILLVFYLCDIAQVS | inactive
92 | ATTNKLIYSHMVGKMLTSSF | inactive

Row | Substance | amyloid nucleation score
93 | AVGNCSSWGYGSSTLP | inactive
94 | AVIRFCPGRNSESDSRAHRP | inactive
95 | AVLVDSWRWERFYFMTTIKT | inactive
96 | AVMVRRYFVDWCRQEVTFHV | 0.088 ± 0.62
97 | AVNYMYSQSMKIVRDCFVIV | inactive
98 | AVRSFLTWISMN | inactive
99 | AVSAVCSAVCGLMSSSTDMD | 0.527 ± 0.26
100 | AVTCVDSWMRDTG | inactive
101 | AVVFCVSEYYQQKRYLNSSQ | inactive
102 | AVVVIQRYLAVHCWVFGERI | -0.57 ± 0.93
103 | AVYSWCARTYSILSTLRGEF | inactive
104 | AWPIIRFYIQRYLWIVRGRG | inactive
105 | AWQYVGMISFM | inactive
106 | AYAIGHEDCEVYQLLVKLLG | inactive
107 | AYKAAYAVWCVIINGGLF | inactive
108 | AYKYVTVCLVDSSVLTSNRG | inactive
109 | AYRLTLCLPSWVWL | inactive
110 | CAHVSFKLVFSINWWSNLLN | inactive
111 | CAISLVRLTVQSEEIRVDRN | inactive
112 | CALSHYGKFDYYPSFVSFKQ | inactive
113 | CANAYWDVCCCYVFLMGLGG | -0.268 ± 1.1
114 | CANFRV | inactive
115 | CAQMPCMLENGP | inactive

Row | Substance | amyloid nucleation score
116 | CASPSGFSSQGVTWFVEV | inactive
117 | CATFFAKLQYNYH | 1.28 ± 0.12
118 | CAWVHIS | inactive
119 | CAYPVKKCMPYQYMKKFVLV | inactive
120 | CCAVLFRGVRGMVRCNWNFD | inactive
121 | CCCRIEYHGVHGATSHSQTV | inactive
122 | CCFIYECSLRNLSALVDDQR | 1.18 ± 0.091
123 | CCFSTGCHEKCSSLDDMCVF | inactive
124 | CCFYRSSWVFKLGEGRVIIP | 0.319 ± 0.43
125 | CCGGFIVMQQAGGSPIDGQG | 0.29 ± 0.2
126 | CCGINGIKLAAANRWSPVEH | inactive
127 | CCLFADCDLRYFSNRTFFNC | inactive
128 | CCLTIGSKPIYHCWQLGIMA | inactive
129 | CCMSSIIVCYCWMYGTTKLM | 0.927 ± 0.1
130 | CCMVNRGTRQVSRWIVPNWR | inactive
131 | CCNDWR | inactive
132 | CCRLDDIRQ | inactive
133 | CCRSWRSYSTVVFICGFLYW | inactive
134 | CCRVRTS | inactive
135 | CCSGLAMAFRFYASYSGAIY | inactive
136 | CCSSRMYLEGCPSLRLMEHI | inactive
137 | CDIISMALEPQVCTEYDLQR | 1.38 ± 0.1
138 | CDMSCMTKSCPPSYPN | -0.395 ± 0.8

Row | Substance | amyloid nucleation score
139 | CDRTIMRSYDPAL | 1.16 ± 0.099
140 | CDSYKVYRVLNKQGWFCRGS | inactive
141 | CDTSCWLLSTPLADWTIAFN | inactive
142 | CELAKLVRNDSFRKDNQGYS | inactive
143 | CELYHMNRDF | inactive
144 | CEYAYFGMDYLLEAGSKSDY | inactive
145 | CFAYG | -0.533 ± 0.4
146 | CFCFLIM | 1.05 ± 0.21
147 | CFDAYIAYLSMRCWYPKNNC | 0.015 ± 0.71
148 | CFFINRRTLKGLT | inactive
149 | CFLSGWTLTVSVLLVDYRKL | inactive
150 | CFMHPADIPSMAVVVYLCAG | inactive
151 | CFNGRCARLYISIIQVIELS | inactive
152 | CFWFNHSNRRGQFFH | -0.286 ± 0.77
153 | CFYGDFSSILSRKVYDYYIR | inactive
154 | CGCCHVVVNSWW | 2.65 ± 0.062
155 | CGCGWVLWPYKYRSDWLGGK | inactive
156 | CGRLHDVG | inactive
157 | CGTCSDYGYHFGCTDRGVDC | inactive
158 | CGVYPYPWVVMFTDCKMNRW | inactive
